Test results reported in US20190031761A1 (SAMSUNG LIFE PUBLIC WELFARE FOUNDATION, published 2019).

Experiments:
[1] = target: EGFR expressed on cells (780 patient-derived cells; normal human epidermal keratinocytes) (human, UniProt P00533 25-1210); experiment: FACS on normal human epidermal keratinocytes (EGFR only), Alexa Fluor 488 anti-human IgG
[2] = target: T1, EGFRvIII expressed in cells (vIII352T1 cells; 626 patient-derived cells) (human, UniProt P00533 25-1210); experiment: FACS on vIII352T1 cells (EGFRvIII only), Alexa Fluor 488 anti-human IgG
T1 construct: whole, on cells; On vIII352T1 cells (EGFR-/EGFRvIII+) in FACS and cytotoxicity assays

[3] = target: T2, recombinant human EGFR/ErbB1 Fc chimera protein (R&D systems, 344-ER) (human, UniProt P00533 25-645); experiment: SPR (Biacore T200), B4A3 captured as ligand, rhEGFR-Fc as sample, 25 C, 1:1 Binding fit to sensorgrams that hardly leave the baseline
T2 construct: Bought protein; also called EGFR recombinant protein; Fc part of the bought chimera not given

[4] = target: T3, EGFRvIII recombinant protein with Fc tag, produced in-house (human); experiment: SPR (Biacore T200), antibody captured with human Fab capture kit, EGFRvIII antigen 0.25 nM to 256 nM as analyte
T3 construct: Produced in Expi293 cells; also called EGFRvIII antigen
T3 sequence (chain, as listed by the source limits assumed): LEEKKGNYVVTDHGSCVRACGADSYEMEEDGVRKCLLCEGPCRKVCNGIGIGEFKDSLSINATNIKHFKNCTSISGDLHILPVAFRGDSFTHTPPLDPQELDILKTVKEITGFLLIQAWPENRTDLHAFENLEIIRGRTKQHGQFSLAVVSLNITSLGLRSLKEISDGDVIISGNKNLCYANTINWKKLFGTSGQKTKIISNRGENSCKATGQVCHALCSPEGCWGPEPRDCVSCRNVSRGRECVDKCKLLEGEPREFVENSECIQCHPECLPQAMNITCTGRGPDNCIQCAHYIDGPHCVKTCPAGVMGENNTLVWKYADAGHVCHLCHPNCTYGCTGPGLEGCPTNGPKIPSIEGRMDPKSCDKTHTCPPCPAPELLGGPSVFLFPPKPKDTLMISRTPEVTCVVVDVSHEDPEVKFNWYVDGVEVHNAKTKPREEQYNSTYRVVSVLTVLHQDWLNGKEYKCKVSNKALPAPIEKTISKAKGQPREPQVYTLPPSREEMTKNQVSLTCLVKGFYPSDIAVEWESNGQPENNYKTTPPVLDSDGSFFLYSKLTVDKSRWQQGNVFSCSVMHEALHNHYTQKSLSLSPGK

B1: B4A3 antibody (human IgG1) (antibody, V domains shown)
VH: EVQLLESGGGLVQPGGSLRLSCAASGFTFSNYYMSWVRQAPGKGLEWVSGTSPNGGSKYYADSVKGRFTISRDNSKNTLYLQMNSLRAEDTAVYYCAKGRRKLRATRFDYWGQGTLVTVSS
VL: QSVLTQPPSASGTPGQRVTISCTGSSSNIGNNYVSWYQQHPGTAPKLLIYSDSNRPSGVPDRFSGSKSGTSASLAISGLRSEDEADYYCATWDASLSAYVFGGGTKLTVL
notes: also called B4A3 IgG; B4A3 human IgG1
In the case of B1, the “EC50 (read off the curve)” value [1] is reported as ~0.03 nM, the “EC50 (read off the curve)” value [2] is reported as ~0.04 nM and the koff [3] is reported as 0.00801 s⁻¹. It also gave a kon [3] of 632 M⁻¹ s⁻¹, a Kd [4] of 4.38 nM and a koff [4] of 0.000248 s⁻¹. For the same binder, the kon [4] was 56600 M⁻¹ s⁻¹.
